Measured values reported in patent publication US20100022459A1.

Target: β-amyloid1-42 (UniProt P05067)
Assay: cell-based or functional assay

- amount of globulomers (densitometry of the 6E10 western blot) (% of the control): 45
Substance: D-Trp-Aib (peptide)
